Source: article PMC5614898

Molecular target: T1, FOXA2-DBD without wing 2 (human, UniProt Q9Y261 157-239)
T1 sequence: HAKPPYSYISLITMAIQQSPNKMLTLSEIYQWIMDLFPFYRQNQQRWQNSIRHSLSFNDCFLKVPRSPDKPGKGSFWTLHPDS
Test: ITC

B1: DBE2 (Daf-16 family binding element 2) (dsDNA)
DNA 1: TGCAAAATGTAAACAAGACT
DNA 2: AGTCTTGTTTACATTTTGCA
B1 was tested, and the Kd was 3.5 ± 0.3 µM.
